± gives the uncertainty stated by the source.
B1: Ubiquitin-protein ligase residues 30 to 86; numbered along this chain, Q05086 (parent)
chain: KHLIERYYHQLTEGCGNEACTNEFCASCPTFLRMDNNAAAIKALELYKINAKLCDPH

Variants of: B1
Test: abundance fitness (aPCA) (normalised: wild type 0, dead -1); higher = more abundant; growth selection in yeast, the domain comes from the species named
Conditions: Homo sapiens

Variant	abundance fitness
KHLIERYDHQLTEGCGNEACTNEFCASCPTFLRMDNNAAAIKALELYKINAKLCDPH	-0.513 ± 0.096
KHLIERYEHQLTEGCGNEACTNEFCASCPTFLRMDNNAAAIKALELYKINAKLCDPH	-0.027 ± 0.07
KHLIERYFHQLTEGCGNEACTNEFCASCPTFLRMDNNAAAIKALELYKINAKLCDPH	-0.138 ± 0.1
KHLIERYGHQLTEGCGNEACTNEFCASCPTFLRMDNNAAAIKALELYKINAKLCDPH	-0.212 ± 0.051
KHLIERYHHQLTEGCGNEACTNEFCASCPTFLRMDNNAAAIKALELYKINAKLCDPH	-0.015 ± 0.13
KHLIERYIHQLTEGCGNEACTNEFCASCPTFLRMDNNAAAIKALELYKINAKLCDPH	0.018 ± 0.094
KHLIERYKHQLTEGCGNEACTNEFCASCPTFLRMDNNAAAIKALELYKINAKLCDPH	0.054 ± 0.081
KHLIERYLHQLTEGCGNEACTNEFCASCPTFLRMDNNAAAIKALELYKINAKLCDPH	0.045 ± 0.057
KHLIERYNHQLTEGCGNEACTNEFCASCPTFLRMDNNAAAIKALELYKINAKLCDPH	-0.097 ± 0.084
KHLIERYPHQLTEGCGNEACTNEFCASCPTFLRMDNNAAAIKALELYKINAKLCDPH	-0.757 ± 0.11
KHLIERYQHQLTEGCGNEACTNEFCASCPTFLRMDNNAAAIKALELYKINAKLCDPH	0.116 ± 0.094
KHLIERYRHQLTEGCGNEACTNEFCASCPTFLRMDNNAAAIKALELYKINAKLCDPH	0.028 ± 0.049
KHLIERYSHQLTEGCGNEACTNEFCASCPTFLRMDNNAAAIKALELYKINAKLCDPH	-0.06 ± 0.052
KHLIERYTHQLTEGCGNEACTNEFCASCPTFLRMDNNAAAIKALELYKINAKLCDPH	0.091 ± 0.069
KHLIERYVHQLTEGCGNEACTNEFCASCPTFLRMDNNAAAIKALELYKINAKLCDPH	-0.015 ± 0.057
KHLIERYWHQLTEGCGNEACTNEFCASCPTFLRMDNNAAAIKALELYKINAKLCDPH	-0.181 ± 0.065
KHLIERYYAQLTEGCGNEACTNEFCASCPTFLRMDNNAAAIKALELYKINAKLCDPH	0.007 ± 0.062
KHLIERYYCQLTEGCGNEACTNEFCASCPTFLRMDNNAAAIKALELYKINAKLCDPH	-0.034 ± 0.071
KHLIERYYDQLTEGCGNEACTNEFCASCPTFLRMDNNAAAIKALELYKINAKLCDPH	-0.189 ± 0.091
KHLIERYYEQLTEGCGNEACTNEFCASCPTFLRMDNNAAAIKALELYKINAKLCDPH	-0.131 ± 0.067
KHLIERYYFQLTEGCGNEACTNEFCASCPTFLRMDNNAAAIKALELYKINAKLCDPH	-0.12 ± 0.088
KHLIERYYGQLTEGCGNEACTNEFCASCPTFLRMDNNAAAIKALELYKINAKLCDPH	-0.008 ± 0.049
KHLIERYYIQLTEGCGNEACTNEFCASCPTFLRMDNNAAAIKALELYKINAKLCDPH	0.015 ± 0.12
KHLIERYYKQLTEGCGNEACTNEFCASCPTFLRMDNNAAAIKALELYKINAKLCDPH	0.077 ± 0.066

Variant	abundance fitness
KHLIERYYLQLTEGCGNEACTNEFCASCPTFLRMDNNAAAIKALELYKINAKLCDPH	0.093 ± 0.06
KHLIERYYMQLTEGCGNEACTNEFCASCPTFLRMDNNAAAIKALELYKINAKLCDPH	-0.013 ± 0.07
KHLIERYYPQLTEGCGNEACTNEFCASCPTFLRMDNNAAAIKALELYKINAKLCDPH	-0.771 ± 0.097
KHLIERYYQQLTEGCGNEACTNEFCASCPTFLRMDNNAAAIKALELYKINAKLCDPH	0.05 ± 0.072
KHLIERYYRQLTEGCGNEACTNEFCASCPTFLRMDNNAAAIKALELYKINAKLCDPH	0.025 ± 0.047
KHLIERYYSQLTEGCGNEACTNEFCASCPTFLRMDNNAAAIKALELYKINAKLCDPH	0.017 ± 0.061
KHLIERYYTQLTEGCGNEACTNEFCASCPTFLRMDNNAAAIKALELYKINAKLCDPH	0.032 ± 0.063
KHLIERYYVQLTEGCGNEACTNEFCASCPTFLRMDNNAAAIKALELYKINAKLCDPH	-0.014 ± 0.059
KHLIERYYWQLTEGCGNEACTNEFCASCPTFLRMDNNAAAIKALELYKINAKLCDPH	-0.055 ± 0.059
KHLIERYYYQLTEGCGNEACTNEFCASCPTFLRMDNNAAAIKALELYKINAKLCDPH	-0.123 ± 0.066
KHLIERYYHALTEGCGNEACTNEFCASCPTFLRMDNNAAAIKALELYKINAKLCDPH	-0.13 ± 0.063
KHLIERYYHCLTEGCGNEACTNEFCASCPTFLRMDNNAAAIKALELYKINAKLCDPH	-0.274 ± 0.085
KHLIERYYHDLTEGCGNEACTNEFCASCPTFLRMDNNAAAIKALELYKINAKLCDPH	-0.485 ± 0.1
KHLIERYYHELTEGCGNEACTNEFCASCPTFLRMDNNAAAIKALELYKINAKLCDPH	-0.868 ± 0.095
KHLIERYYHFLTEGCGNEACTNEFCASCPTFLRMDNNAAAIKALELYKINAKLCDPH	-0.329 ± 0.099
KHLIERYYHGLTEGCGNEACTNEFCASCPTFLRMDNNAAAIKALELYKINAKLCDPH	-0.311 ± 0.052
KHLIERYYHHLTEGCGNEACTNEFCASCPTFLRMDNNAAAIKALELYKINAKLCDPH	-0.148 ± 0.099
KHLIERYYHILTEGCGNEACTNEFCASCPTFLRMDNNAAAIKALELYKINAKLCDPH	-0.15 ± 0.089
KHLIERYYHKLTEGCGNEACTNEFCASCPTFLRMDNNAAAIKALELYKINAKLCDPH	-0.5 ± 0.086
KHLIERYYHLLTEGCGNEACTNEFCASCPTFLRMDNNAAAIKALELYKINAKLCDPH	-0.198 ± 0.055
KHLIERYYHNLTEGCGNEACTNEFCASCPTFLRMDNNAAAIKALELYKINAKLCDPH	-0.127 ± 0.092
KHLIERYYHPLTEGCGNEACTNEFCASCPTFLRMDNNAAAIKALELYKINAKLCDPH	-0.86 ± 0.095
KHLIERYYHRLTEGCGNEACTNEFCASCPTFLRMDNNAAAIKALELYKINAKLCDPH	-0.07 ± 0.049

Source: the Human Domainome abundance scans (Beltran et al. 2025)
